From the supplement of paper PMC11246515
± gives the standard deviation of the averaged measurements.

Experiment: total protein half-life in vivo (active degradation + dilution); higher = more stable protein
[1] = E. coli NCM3722 delta-clpP delta-lon delta-hslV, growth: N-lim chemostat, doubling time 6 h
[2] = E. coli NCM3722 delta-clpP, growth: N-lim chemostat, doubling time 6 h
[3] = E. coli NCM3722 delta-hslV, growth: N-lim chemostat, doubling time 6 h
[4] = E. coli NCM3722 delta-lon, growth: N-lim chemostat, doubling time 6 h
[5] = E. coli NCM3722 delta-smpB, growth: N-lim chemostat, doubling time 6 h
[6] = wild type E. coli NCM3722, growth: C-lim chemostat, doubling time 3 h
[7] = wild type E. coli NCM3722, growth: C-lim chemostat, doubling time 6 h
[8] = wild type E. coli NCM3722, growth: C-lim chemostat, doubling time 12 h
[9] = wild type E. coli NCM3722, growth: N-lim chemostat, doubling time 6 h
[10] = wild type E. coli NCM3722, growth: N-lim chemostat, doubling time 12 h
[11] = wild type E. coli NCM3722, growth: P-lim chemostat, doubling time 6 h
[12] = wild type E. coli NCM3722, growth: P-lim chemostat, doubling time 12 h

For “MSWQEKINAALDARRAADALRRRYPVAQGAGRWLVADDRQYLNFSSNDYLGLSHHPQIIRAWQQGAEQFGIGSGGSGHVSGYSVVHQALEEELAEWLGYSRALLFISGFAANQAVIAAMMAKEDRIAADRLSHASLLEAASLSPSQLRRFAHNDVTHLARLLASPCPGQQMVVTEGVFSMDGDSAPLAEIQQVTQQHNGWLMVDDAHGTGVIGEQGRGSCWLQKVKPELLVVTFGKGFGVSGAAVLCSSTVADYLLQFARHLIYSTSMPPAQAQALRASLAVIRSDEGDARREKLAALITRFRAGVQDLPFTLADSCSAIQPLIVGDNSRALQLAEKLRQQGCWVTAIRPPTVPAGTARLRLTLTAAHEMQDIDRLLEVLHGNG”, the “total protein half-life in vivo” value [1] was 4.06 ± 0.98 h, the “total protein half-life in vivo” value [2] was 3.57 ± 0.11 h and the “total protein half-life in vivo” value [3] was 3.29 ± 0.14 h. The “total protein half-life in vivo” value [4] was 3.88 ± 0.17 h, the “total protein half-life in vivo” value [5] was 3.54 ± 0.15 h and the “total protein half-life in vivo” value [6] was 3.07 ± 0.22 h. For the same sequence, the “total protein half-life in vivo” value [7] was 5.16 ± 0.21 h, the “total protein half-life in vivo” value [8] was 8.97 ± 0.33 h and the “total protein half-life in vivo” value [9] was 3.58 ± 0.21 h. The “total protein half-life in vivo” value [10] was 5.24 ± 0.38 h, the “total protein half-life in vivo” value [11] was 5.643 ± 0.044 h and the “total protein half-life in vivo” value [12] was 10.9 ± 0.2 h.

For “MSWQQFKHAWLIKFWAPIPAVIAAGILSTYYFGITGTFWAVTGEFTRWGGQLLQLFGVHAEEWGYFKIIHLEGSPLTRIDGMMILGMFGGCFAAALWANNVKLRMPRSRIRIMQAIIGGIIAGFGARLAMGCNLAAFFTGIPQFSLHAWFFAIATAIGSWFGARFTLLPIFRIPVKMQKVSAASPLTQKPDQARRRFRLGMLVFFGMLGWALLTAMNQPKLGLAMLFGVGFGLLIERAQICFTSAFRDMWITGRTHMAKAIIIGMAVSAIGIFSYVQLGVEPKIMWAGPNAVIGGLLFGFGIVLAGGCETGWMYRAVEGQVHYWWVGLGNVIGSTILAYYWDDFAPALATDWDKINLLKTFGPMGGLLVTYLLLFAALMLIIGWEKRFFRRAAPQTAKEIA”, the “total protein half-life in vivo” value [2] was 1.86 h, the “total protein half-life in vivo” value [3] was 2.16 h and the “total protein half-life in vivo” value [5] was 3.67 h. For the same sequence, the “total protein half-life in vivo” value [7] was 4.44 ± 0.089 h, the “total protein half-life in vivo” value [8] was 6.8 ± 1.4 h and the “total protein half-life in vivo” value [9] was 3.69 h. The “total protein half-life in vivo” value [11] was 2.95 h.

With “MSYPLFDKDEHWHKPEQAFLTDDHRTILRFAVEALMSGKGAVLVTLVEIRGGAARPLGAQMVVREDGRYCGFVSGGCVEAAAAFEALEMMGSGRDREIRYGEGSPWFDIVLPCGGGITLTLHKLRSAQPLLAVLNRLEQRKPVGLRYDPQAQSLVCLPTQTRTGWNLNGFEVGFRPCVRLMIYGRSLEAQATASLAAATGYDSHIFDLFPASASAQIDTDTAVILLCHDLNRELPVLQAAREAKPFYLGALGSYRTHTLRLQKLHELGWSREETTQIRAPVGIFPKARDAHTLALSVLAEVASVRLHQEEDSCLPPSS” the “total protein half-life in vivo” value [1] was 5.9 ± 0.33 h.

With “MTAELLVNVTPSETRVAYIDGGILQEIHIEREARRGIVGNIYKGRVSRVLPGMQAAFVDIGLDKAAFLHASDIMPHTECVAGEEQKQFTVRDISELVRQGQDLMVQVVKDPLGTKGARLTTDITLPSRYLVFMPGASHVGVSQRIESESERERLKKVVAEYCDEQGGFIIRTAAEGVGEAELASDAAYLKRVWTKVMERKKRPQTRYQLYGELALAQRVLRDFADAELDRIRVDSRLTYEALLEFTSEYIPEMTSKLEHYTGRQPIFDLFDVENEIQRALERKVELKSGGYLIIDQTEAMTTVDINTGAFVGHRNLDDTIFNTNIEATQAIARQLRLRNLGGIIIIDFIDMNNEDHRRRVLHSLEQALSKDRVKTSVNGFSALGLVEMTRKRTRESIEHVLCNECPTCHGRGTVKTVETVCYEIMREIVRVHHAYDSDRFLVYASPAVAEALKGEESHSLAEVEIFVGKQVKVQIEPLYNQEQFDVVMM [P0A9J0]” the “total protein half-life in vivo” value [1] was 3.85 ± 0.3 h, the “total protein half-life in vivo” value [2] was 2.58 ± 0.087 h and the “total protein half-life in vivo” value [3] was 3.04 ± 0.55 h. For the same sequence, the “total protein half-life in vivo” value [4] was 3.28 ± 0.38 h, the “total protein half-life in vivo” value [5] was 2.62 ± 0.21 h and the “total protein half-life in vivo” value [6] was 3.09 ± 0.69 h. For the same sequence, the “total protein half-life in vivo” value [7] was 4.36 ± 0.16 h, the “total protein half-life in vivo” value [8] was 8.57 ± 0.57 h and the “total protein half-life in vivo” value [9] was 2.6 ± 0.14 h. For the same sequence, the “total protein half-life in vivo” value [10] was 3.45 ± 0.073 h, the “total protein half-life in vivo” value [11] was 5.69 ± 0.42 h and the “total protein half-life in vivo” value [12] was 10.35 ± 0.087 h.

In the case of “MTAINRILIVDDEDNVRRMLSTAFALQGFETHCANNGRTALHLFADIHPDVVLMDIRMPEMDGIKALKEMRSHETRTPVILMTAYAEVETAVEALRCGAFDYVIKPFDLDELNLIVQRALQLQSMKKEIRHLHQALSTSWQWGHILTNSPAMMDICKDTAKIALSQASVLISGESGTGKELIARAIHYNSRRAKGPFIKVNCAALPESLLESELFGHEKGAFTGAQTLRQGLFERANEGTLLLDEIGEMPLVLQAKLLRILQEREFERIGGHQTIKVDIRIIAATNRDLQAMVKEGTFREDLFYRLNVIHLILPPLRDRREDISLLANHFLQKFSSENQRDIIDIDPMAMSLLTAWSWPGNIRELSNVIERAVVMNSGPIIFSEDLPPQIRQPVCNAGEVKTAPVGERNLKEEIKRVEKRIIMEVLEQQEGNRTRTALMLGISRRALMYKLQEYGIDPADV”, the “total protein half-life in vivo” value [1] is reported as 5.23 ± 2.1 h, the “total protein half-life in vivo” value [2] is reported as 3.82 h and the “total protein half-life in vivo” value [3] is reported as 2.7 h. For the same sequence, the “total protein half-life in vivo” value [4] was 3.5 h, the “total protein half-life in vivo” value [5] was 2.912 ± 0.0036 h and the “total protein half-life in vivo” value [6] was 3.09 ± 0.26 h. For the same sequence, the “total protein half-life in vivo” value [7] was 5.56 ± 0.094 h, the “total protein half-life in vivo” value [8] was 10.6 ± 2.5 h and the “total protein half-life in vivo” value [9] was 3.16 h. For the same sequence, the “total protein half-life in vivo” value [11] was 4.99 ± 0.19 h and the “total protein half-life in vivo” value [12] was 10.9 ± 1.7 h.

For “MTAPLTLLIVEDETPLAEMHAEYIRHIPGFSQILLAGNLAQARMMIERFKPGLILLDNYLPDGRGINLLHELVQAHYPGDVVFTTAASDMETVSEAVRCGVFDYLIKPIAYERLGQTLTRFRQRKHMLESIDSASQKQIDEMFNAYARGEPKDELPTGIDPLTLNAVRKLFKEPGVQHTAETVAQALTISRTTARRYLEYCASRHLIIAEIVHGKVGRPQRIYHSG [P0AEF4]”, the “total protein half-life in vivo” value [1] was 4.85 h, the “total protein half-life in vivo” value [2] was 3.389 ± 0.03 h and the “total protein half-life in vivo” value [3] was 3.43 h. The “total protein half-life in vivo” value [5] was 3.22 h, the “total protein half-life in vivo” value [6] was 2.24 h and the “total protein half-life in vivo” value [7] was 5.33 h. The “total protein half-life in vivo” value [8] was 8.21 h, the “total protein half-life in vivo” value [9] was 3 ± 0.62 h and the “total protein half-life in vivo” value [10] was 5.34 ± 0.18 h. For the same sequence, the “total protein half-life in vivo” value [11] was 3.33 ± 0.5 h and the “total protein half-life in vivo” value [12] was 7.63 ± 0.19 h.

With “MTATAQQLEYLKNSIKSIQDYPKPGILFRDVTSLLEDPKAYALSIDLLVERYKNAGITKVVGTEARGFLFGAPVALGLGVGFVPVRKPGKLPRETISETYDLEYGTDQLEIHVDAIKPGDKVLVVDDLLATGGTIEATVKLIRRLGGEVADAAFIINLFDLGGEQRLEKQGITSYSLVPFPGH” the “total protein half-life in vivo” value [2] was 4.03 ± 0.92 h, the “total protein half-life in vivo” value [3] was 4.32 ± 0.47 h and the “total protein half-life in vivo” value [4] was 4.33 ± 0.17 h. For the same sequence, the “total protein half-life in vivo” value [5] was 3.58 ± 0.46 h, the “total protein half-life in vivo” value [7] was 4.57 ± 0.87 h and the “total protein half-life in vivo” value [8] was 8.09 ± 0.39 h. The “total protein half-life in vivo” value [9] was 5.06 ± 1 h, the “total protein half-life in vivo” value [10] was 6.92 ± 0.095 h and the “total protein half-life in vivo” value [11] was 5.1 ± 0.18 h. For the same sequence, the “total protein half-life in vivo” value [12] was 10.9 ± 0.8 h.

In the case of “MTDKMQSLALAPVGNLDSYIRAANAWPMLSADEERALAEKLHYHGDLEAAKTLILSHLRFVVHIARNYAGYGLPQADLIQEGNIGLMKAVRRFNPEVGVRLVSFAVHWIKAEIHEYVLRNWRIVKVATTKAQRKLFFNLRKTKQRLGWFNQDEVEMVARELGVTSKDVREMESRMAAQDMTFDLSSDDDSDSQPMAPVLYLQDKSSNFADGIEDDNWEEQAANRLTDAMQGLDERSQDIIRARWLDEDNKSTLQELADRYGVSAERVRQLEKNAMKKLRAAIEA [P0AGB3]”, the “total protein half-life in vivo” value [1] is reported as 0.775 ± 0.044 h and the “total protein half-life in vivo” value [12] is reported as 0.858 h.
